According to patent publication US20040002127A1 (CHISSO, published 2004):

Target: T1, 35 kDa protein of Oplophorus luciferase (native, purified from Oplophorus gracilirostris) (Oplophorus gracilirostris, UniProt Q9GV46 40-359)
T1 sequence: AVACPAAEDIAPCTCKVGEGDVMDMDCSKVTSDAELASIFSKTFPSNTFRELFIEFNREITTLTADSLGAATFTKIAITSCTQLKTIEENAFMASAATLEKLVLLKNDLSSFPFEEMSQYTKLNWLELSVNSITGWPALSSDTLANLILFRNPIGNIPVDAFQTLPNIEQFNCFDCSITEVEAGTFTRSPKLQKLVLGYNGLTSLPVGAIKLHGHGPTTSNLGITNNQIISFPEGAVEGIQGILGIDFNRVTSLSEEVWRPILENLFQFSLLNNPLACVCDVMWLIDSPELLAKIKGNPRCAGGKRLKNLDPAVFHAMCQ
Assay: gel filtration of native luciferase (about 106 kDa) against SDS-PAGE and SDS gel filtration HPLC (35 kDa and 19 kDa components)
Description: The deep-sea luminous shrimp (Oplophorus gracilirostris) obtained in the Suruga Bay, Shizuoka, Japan were used as a starting material. A crude extract containing Oplophorus luciferase was prepared in the same manner as disclosed by Shimomura, et al., in Biochemistry 17 (1978) and further purified by chromatography in two steps. The first step was by hydrophobic interaction chromatography on a column of butyl Sepharose 4 Fast Flow (Pharmacia; 0.7 cm×3.5 cm) using 20 mM Tris-HCl, pH 8.5, eluting with decreasing concentrations of ammonium sulfate starting at 1.5 M. The second step was by gel filtration on a column of Superdex 200 Prep (Pharmacia; 1 cm×48 cm) in 20 mM Tris-HCl, pH 8.5, containing 50 mM NaCl. The molecular weight of Oplophorus luciferase was estimated to be about 106 kDa by gel filtration on the same column when compared with the molecular weight markers as follows: (a) amylase (200 kDa); (b) alcohol dehydrogenase (150 kDa); (c) bovine serum albumin (67 kDa); (d) ovalbumin (45 kDa); (e) carbonic anhydrase (29 kDa); and (f) ribonuclease (13.7 kDa).
SDS-PAGE analysis (12% polyacrylamide gel) of the purified samples gave two major protein bands corresponding to molecular weights of 35 kDa and 19 kDa, respectively. […]

B1: 19 kDa protein of Oplophorus luciferase (native, purified from Oplophorus gracilirostris) (enzyme)
chain: FTLADFVGDWQQTAGYNQDQVLEQGGLSSLFQALGVSVTPIQKVVLSGENGLKADIHVIIPYEGLSGFQMGLIEMIFKVVYPVDDHHFKIILHYGTLVIDGVTPNMIDYFGRPYPGIAVFDGKQITVTGTLWNGNKIYDERLINPDGSLLFRVTINGVTGWRLCENILA
notes: also called 19 kDa photoprotein
  binding result: binds
